The record followed here is paper PMC6698644 (Nucleic Acids Research, 2019).

The target of series [1] is T1, LeuO-S120D-His6 (Escherichia coli K12, UniProt P10151 1-314, S120D).
T1 sequence: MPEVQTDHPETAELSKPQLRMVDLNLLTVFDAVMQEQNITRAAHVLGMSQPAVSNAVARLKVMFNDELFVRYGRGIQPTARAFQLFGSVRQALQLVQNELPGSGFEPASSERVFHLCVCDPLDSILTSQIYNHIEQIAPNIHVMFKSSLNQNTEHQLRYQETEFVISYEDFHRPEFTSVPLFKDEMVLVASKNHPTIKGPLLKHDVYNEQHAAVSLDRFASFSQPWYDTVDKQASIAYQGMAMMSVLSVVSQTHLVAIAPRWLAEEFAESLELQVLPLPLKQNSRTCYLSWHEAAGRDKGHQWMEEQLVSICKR
In words: SPR.

The target in series [2] is T2, LeuO-His6 (wild type) (Escherichia coli K12, UniProt P10151 1-314).
T2 sequence: T1 sequence with D120S
In words: SPR.

The series “crystal structure” concerns the molecule itself. Kind of series: crystal structure.
The target of series [3] is T2, LeuO-His6 (wild type). In words: SPR. The source holds these as a separate data set.
Series [4] deals with T1, LeuO-S120D-His6. Kind of series: SPR. The source holds these as a separate data set.
Another series concerns the target T3, LeuO-DBD-His6 (Escherichia coli K12, UniProt P10151 1-101).
T3 sequence: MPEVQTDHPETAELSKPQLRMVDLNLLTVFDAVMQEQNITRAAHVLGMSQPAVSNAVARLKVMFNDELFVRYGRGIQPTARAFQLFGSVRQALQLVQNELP
Kind of series: SPR.

The series “SEC” deals with the molecule itself. In words: SEC.
Series [5] addresses T1, LeuO-S120D-His6. In words: gel filtration.
The target in series [6] is T2, LeuO-His6 (wild type). Kind of series: gel filtration.

Residue numbers refer to the chain shown, from its start. In names and notes the source's numbering stands.

B1: SPR fragment B, cas core-site (25 bp) (dsDNA)
DNA 1: GGGGGTTTATATTCACAGTATGAATATTTTGGGGG
DNA 2: CCCCCAAAATATTCATACTGTGAATATAAACCCCC
B1: the figures for the Kd with LeuO-S120D-His6 [1] and with LeuO-His6 (wild type) [2] were 0.6 nM and 0.9 nM, respectively.

B2: LeuO-S120D effector-binding domain, C-terminally histidine-tagged (LeuO-S120D-EBD_(His6)) (domain or fragment, Escherichia coli)
chain: SSERVFHLCVCDPLDSILTSQIYNHIEQIAPNIHVMFKSSLNQNTEHQLRYQETEFVISYEDFHRPEFTSVPLFKDEMVLVASKNHPTIKGPLLKHDVYNEQHAAVSLDRFASFSQPWYDTVDKQASIAYQGMAMMSVLSVVSQTHLVAIAPRWLAEEFAESLELQVLPLPLKQNSRTCYLSWHEAAGRDKGHQWMEEQLVSICKR
B2: in “crystal structure”, the binding result is “binds”.

B3: SPR fragment C, scrambled (60 bp) (dsDNA)
DNA 1: GGGGGGTAAATTACATAATGCGATTAAAATTTATTTTCAAAAGTTTAATTTAACATTGAATTTATGGGGG
DNA 2: CCCCCATAAATTCAATGTTAAATTAAACTTTTGAAAATAAATTTTAATCGCATTATGTAATTTACCCCCC
With B3, the binding result with LeuO-His6 (wild type) [3], in the series with LeuO-S120D-His6 [4] and with LeuO-DBD-His6 was “no binding” in each case.

B4: SPR fragment A, cas LeuO site II (60 bp) (dsDNA)
DNA 1: GGGGGTTTATATTCACAGTATGAATATTTTATGTAATAAAATTCATGGTAATTATTATAACTAAAGGGGG
DNA 2: CCCCCTTTAGTTATAATAATTACCATGAATTTTATTACATAAAATATTCATACTGTGAATATAAACCCCC
For the molecule B4, the values for the Kd with LeuO-S120D-His6 [1] and with LeuO-His6 (wild type) [2] were 0.2 nM and 0.7 nM, respectively.

B5: LeuO, C-terminally histidine-tagged (LeuO_(His6)) (natural protein, Escherichia coli, UniProt P10151 1-314, looked up)
chain: T1 sequence with D120S
With B5, in “SEC”, the “stoichiometry N” value came out at 4.

B6: LeuO-S120D, C-terminally histidine-tagged (LeuO-S120D_(His6)) (natural protein, Escherichia coli, UniProt P10151 1-314, looked up)
chain: T1 sequence
For the molecule B6, the “stoichiometry N” value in “SEC” turned out to be 4.

B7: gel filtration fragment, cas LeuO site II (60 bp) (dsDNA)
DNA 1: TTTATATTCACAGTATGAATATTTTATGTAATAAAATTCATGGTAATTATTATAACTAAA
DNA 2: TTTAGTTATAATAATTACCATGAATTTTATTACATAAAATATTCATACTGTGAATATAAA
With B7, the binding result with LeuO-S120D-His6 [5] and in the series with LeuO-His6 (wild type) [6] was “binds” each time.
